Experiment: yeast display, Sf9 membrane polyspecificity reagent, FACS + sequencing; frameworks hold sequencing errors
Method in brief: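 A nanobody's polyreactivity label depends on the gate it was sorted from. Yeast display cells were stained with 10% biotinylated, detergent-solubilized Sf9 membrane reagent for 1 hour at 4 °C, enriched on streptavidin microbeads and sorted by FACS. The low and high (top ~1%) gates were set on anti-HA fluorescence for expression and streptavidin fluorescence for reagent binding.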

Row | Sequence | polyreactivity (PSR sort gate)
1 | QVQLVESGGGLVQAGGSLRLTCAASGSTFVRYAMGWSRQAPGKERELVAAISRGGRTNYADSVKGRFTISRDNAKNTVYLQMNSLKPEDTAVYDCAKDRNIYYTYDYWGQGTQVTVSS | low polyreactivity
2 | QVQLVESGGGLVQAGGSLRLSCGASGLTFAYYAMRWYRQAPGKERELVAAISSSGRSTYYADSVKGRFTISRDNAKNTVYLQMNSLTEEDTAVSYCDKVGPWYYWERDYWGQCTQVTVSS | high polyreactivity
3 | QVQLVESGGGLFQAGGSLRLSCAASGRTLPAYAMGWYRQAPGKERELVAAISWGGGSTYYADSVKGRFTISRDNAKNTVYLQMNSLKPEDTSVYYCAVAGYWFAVAEYEYWGQGTQVTVSS | low polyreactivity
4 | QVQLVESGGGLVQAGGSLRLSCAASGRTFRNYAMGWYRPAPGKERELDAGITDSGGSTFYADSVKGRFTISRDNAKNTVYLQMNSLKPADTAVYYCAAVYVPYYWLGRSRGLDYWGQGTQVTVSS | high polyreactivity
5 | QVQLVESGGGLVQAGGSLRLSSAATGSTSFQNAMGWYRQAPGKEREFVAAISGSGDRTNYADSVKGRFTISRDNAKNTVYLQMNSLIPEDTAVYYCAAVRGYPPTNYYYWGQGTQVTVSS | high polyreactivity
6 | QVQLVESGGGLVQAGGSLRLNCAASGSIFDKNAMGWYRQAPGKERELVAAISRSGGSTYYADSVKGRFTISRDNAKNTVYLQMNSLKPEVTAVYYCNKYTNGRNFDYWGQGTQVTVSS | high polyreactivity
7 | QVQLVESGGGLVQAGGSLRLSCAASGSIFYVYGMGWYRQAPGKERELVAAITRSGGIKYYADSVKGRFTISRDNAKNTVYLLMNSLKPEDTAVYYCAALSYRYTDKVVYWGQGTQVTVSS | low polyreactivity
8 | QVQLVESGGGLDQAGGSLRLSSAASGRTFYYYAMGWYRKAPGKERELVAAITRSGGSTYYADSVKGRFTISRDNAKNTFYLQMNSLKPEDTAVYYCAVQVRPNSGGTRIHRGGYDYWGQGTQVTVSS | low polyreactivity
9 | QVQLVESGGGLVQAGGSLRLSCAAYGSIFWYYAMGWYRQAHGKERELVAAISASGSSTYYADSVKGRLTISRDNAKNPVYLQMNSLNPEDTAVYYCAGTYILYNDWLYHYFPEEYDSWGQGTQVTVSS | low polyreactivity
10 | QVQLVESGAGLVQAGGSLRLSCAASGSTFEVYAMGWYRQAPGKVMELVADISHIGGSTYSADSVMGRFTISRDNAKNTVYLQLNSLKPEDTAVYYCNAYTVYAYDYWGQGTQVTVSS | low polyreactivity
11 | QVKLVESGGGLVQAGGSLRLSCAASGRIFRFNPMGCYRQAPGKERELVAASNWRGGTTYADSVKGRFTISRDNAKNTVYLQMNSLKPEDTAVYYCNAGYGVTKWPYEERYDYWGQGTQVTLSS | high polyreactivity
12 | QVQHVESGGGLVQAAGSLRLSCAASGTIFYWYTMGWYRQARGKERELVATITGSGSSTTYADSVKGRFTISRDNAKNSVYLQMNSLKPEDTAVYYCAKVYYIGIRGEYDYWGQGTQVTVSA | low polyreactivity
13 | QVQLVESGGGLVQAGGSLRLSCAASGSIFARYAMGWYIQAPGKEREFVAAISRSGGSTYYADSVKGRFTISRDNAKNTVYLQMNSLKPEDTAVYYCAARGGTKYDYWGQGTQVTVSS | high polyreactivity
14 | QEQLQESVVCQVQAGRSLHLSCAASGNIIRYSYMGWYRQAPGNERELVAAITYGTSTNYADSVKGRFTISRDHAKNTVYLQMTSLKPEDTAVYYCAVDVNYGDPLDNWCQGTQVTVSS | high polyreactivity
15 | QVQLVESGGGLVQAGGSLRLSCAASGYIFWGNAMGWYRQAPGKERELVAAISYIGGSTYYADSVKGRFTISRDNAKNTVYLQMNSLKPEDTAVYYCAKRVLHQPYYHGVSGRRYDYWGQGTQVTVSS | high polyreactivity
16 | QVQLVESAGGLVQAGGSLRLSCAASGFTFDYYAMGWYRQAPGKERELVASITFIGGNTNYADSVKGRFTISRDNAKTTVYLQMNSLKPEDTAVYYCAADFPWDYRYWFEYWGQGTQVTVSS | low polyreactivity
17 | QVQLVESGVGLVQAGGSLRLSCAASGSTFSAYTMGWYRQAPGKERELVAAIRFDGGRTYYADSVKGRFTISRDNAKNTVYLQMNSLKPEDTAVYYCRAWQSYSYDYSGQGTQVTVSS | high polyreactivity
18 | QVQLVESGGGLVQAGGSLRLSCAASGLTFGGNAMGWYRQAPGKERELVAAISWSDDTTDYADSVKGRFTISRDNAKNTVYVQMNSLKPEDTAVYYCAARLPFEHVDYWGQGTQVTVTS | low polyreactivity
19 | QVQLVESGGGLVQAGGSLRLSCAASGSIFSPYTMGWYRQAPGKEREFVAAIRWTTGSTYYADSVKGRFTISRDNAKNTVYLQMNSLKPEDTAVYYCAADPSYRSRLFRSYEYDYWGQGTQVTVSS | high polyreactivity
20 | QVQLVESGGGLVQAGGSLRLSCAASGSTFLNYAMGWYRQAPGKERELVAAISGRGGRTYYADSVKGRFTISRDNAKNTVYLLMNSLKPEDTAVYYCAARKWVSYTSYDYWGQGTQVTVSS | high polyreactivity
21 | QVQLVESGGGLVQAGGSLRLSFGASGLNFGWYAMGWYRKAPGKERELVAAITYDGDSTYYADSVKGRFTISRDNAKNTVYFQMNSLKPEDTAFYYCAGEYGYGEMDSWGQGTQVTVTS | high polyreactivity
22 | QVQLVESGGGLVQAGGRLSLSCAASGFIFDYYSMGWYRQAPGKERELVAAISWSGGSTYYADSVKGRFTISRDNAKNTVYLQMNSLKPEDTAVYYCNTYYQGYWGDFDYWGQGTQVTVSS | high polyreactivity

Row | Sequence | polyreactivity (PSR sort gate)
23 | QGQLVESGGGLVQAGGSLRLSCAASGSIFPYNDMGWYRQAPRKERELFAAINSDGSTDYADSVKGRFTISRDNAKNTVYLLMKSLKPEDTAVYDCNGDYVATFLSPPTSVSYGYWGQVTQVTVSS | low polyreactivity
24 | QVQLVESGGGLVQAGGSLRLSCAASGRIFKTNAMGWYRQAPGKERELVAAISWRGVGTYYADSVKGRFTISRDNAKNTVYLQMNSLKPEDTAVYYCAARWTVPRDTAPSKGYDYWGQGTQVTVSS | low polyreactivity
25 | QVQLVESGVGLVQAGGSLRLSCAASGSIFPPYAMGWYRQAPGKERELVAAITSGGRTNYADSVKGRFTISRDNAKNTVYLQMNSLKPEDTEVYYCAQTGSYAKIRPNNDYWGQGTQVTVSS | low polyreactivity
26 | QVQLVESGGGLVQAGGSLRLSCAASGFIFGTYAMGWYRQAPGKEWELVAAISSGGSTFYADSVKGRFTISRDNEKNTVYLQMYSLKPEDTAVYYCAKEGGTYRIFNYWGQGTQVTVSS | low polyreactivity
27 | QVQLVESGGGLVQAGGSLRLSCAASGFIFSVNAMGWYRQAPGKERELVADISCRGTSTNYADSVKGRFTISRDNAKNTVYLQMNSLKPEDTAVYYCAADGQLHMDYWGQGTQVTVSS | high polyreactivity
28 | QVQLVESGGGLVQAGGSLRLICAASGRTFRYYTMGWYRQAPGKEREFVAAISSTGGTYYADSVKGRFTNSRDNAKNTVYFQMNSLKPEDTAVYYWAAYRWGILSAYYYAWYGYWGQGTQVTVSS | low polyreactivity
29 | QVQLVESGGGLVQAGGSLRLSCAASGTTFTFNAMGWSRQAPGKERELVAAMSRSGGRTYYADSVKGRFTISRDNAKNTVYLQMNSLNPEDTAVYYCANDFVEQGRYNVGYWGQGTQVTGSS | high polyreactivity
30 | QVQLVDSGGGLVQAGGSLRLTCAASGSTFDTNSVGWYRQAPGKERELVAAITSGGNTYADSVKGRFTISRDNAKNTVYFQMNSLKAEDTAVYYCAAEDVFTCWYDYWGQGTQVNVSS | low polyreactivity
31 | QVQLVESGGGLVQAGGSLRLSCAASGRIFFYYAMGWYRQAPGKERELVATITASGDSTYYADSVKGRFTISRDNAMDTVYLQMNSLKPEDTAVYYCAADDGDYYEVDYWGQGTQVTVSS | low polyreactivity
32 | QVQLLESGGGLVQAGGSLRLSCAASGRTFTLYTMGWYRQAPGKERELVAAISARGGSTYYADSVKGRFTISRDNAKNTVYLQMNSLKPEDTAVYYCAAESNRLRYYYWGQGTQVTVSS | high polyreactivity
33 | QVQLVESGGGLVQAGGSLRLSFAASGSTLGQNAMGWYRQARGKERELVAASSSGGRTYYADSVKGRFTISRDNAKNTVYLQMNSLNPEDTAVYYCNAVAYSLSGYNSWGQGTQVTVSS | high polyreactivity
34 | QVQLVESGGGLVQAGGSLRLSCAASGRTYSYYAMGWYRQAPGKERQLVAAITTRTGSTYYADSVKGRFTISRDNAKNTVYLQMNSLKPEDTAVYYCAAEPRYLRSGKGFDYWGQGTQVTVSS | high polyreactivity
35 | QVQIVESGGGLVQAGGSLRLSCASSGSTFVSYDMGWYRQAPGKERELVADISWSGVSTYADSVKGRFTISRDNAMNTVYLQMNSLKPEDTAVYYCAKDSDLYQRGGYYWGQGTQVTVSS | low polyreactivity
36 | QVQLVESGGGLVQAGGSLRLSCAASGRTFWYYPMGWYRQAPGKEREFVAAISWSGGSTYYADSVKGRFTISRDNAKNTVYLQMNSLKPEDTAVYYCAADRYDSSQFYYWGQGTQVTVSS | low polyreactivity
37 | QVQLVESGGGLVQAGGSLRLSCAASGFTFLKYAMGWYRQAPGKERELVAAISWSGGRTFYADSVKGRFTISRDNAKNTVYLQMISLKPEDTAVYYCATRTRGSVYRFDYWGQGTQVTVSS | high polyreactivity
38 | QVQLVESGGGFVQAGGSLRLSCAASGFTFFPYAMGWYRQAPGNEWELVAAISWSGGRTYYADSVKGRFTISRDNAKNTVYLHMNSLKPEDTAVYYCNARWRSGPRAYDYWGHGTQVTVSS | high polyreactivity
39 | QVQLVESGGGLVQAGGSLRLSCAASGRILPFNAMGWYRQAPGKERELVAAIRWRGSSTYYADSVKGRFTISRDIAKNTVYLQMNSLKPEDTAVYYCAAPSSVRGKVISADYGYWGQGTQVTVSS | high polyreactivity
40 | QVQLVESGGGLVQAGGSLRLSCAASGRTFYYYAKGWYRQAPGKERELVARISRCGSTNYADSVKGRFTISRDNAKNTVYLQMISLKPEDSAVYYCAAGWRGGRYRYFAYDYWGQGTQVTVSS | high polyreactivity
41 | QVQLVESGGGLVQAGGSLRLSCAASGSIFEPNAMGWYRQAPGKERELVAAISWNDGDTYYADSVKGRFTISRDNAKNTVYLQMNSLKPVDTAVYYCAAETGYAFDYWGQGTQVTVSS | low polyreactivity
42 | QVQLVESGGGLVQAGGSLRLSCAASGRIFYNYAMGWYRQAPGKERELVAAISGSGGSTYYADSVKGRFTISRDNAKNTVYLQMNSLKPEDTAVYYCNADTVYTRTAPYDYWGQGSQVTVSS | low polyreactivity
43 | QVQLVESGRGLVQAGRSLRLSCAASGFIFETYPMGWYRQAPGKVRELVAAISRGASTYYADSVKGRFTISRDNAKNTVYLQMNSLTPEDTAVYNCAAQQGISYGTGVSATNPMDYWGQGTHVTVSS | low polyreactivity
